Data from patent publication US20230087785A1, “Leucine-Rich Repeat Kinase 2 Allosteric Modulators” (VIB VZW, priority 2020, published 2023).

Columns and labels:
[1] = target: T1, LRRK2(G2019S) (Homo sapiens, UniProt Q5S007, G2019S/M2397T/R50H); assay: In cellulo phospho-Rab / LRRK2 autophosphorylation assay in HEK293T cells; assay type: cell-based; details: HEK 293T cells co-expressing LRRK2(G2019S), Rab29 and Nb-GFP; for influence on LRRK2 kinase activity compared to the controls: Western blot
T1 construct: SF tag (FLAG + Twin-Strep); expressed in transfected cells; host or cells: HEK 293T
T1 sequence (Q5S007 whole entry R50H/G2019S/M2397T): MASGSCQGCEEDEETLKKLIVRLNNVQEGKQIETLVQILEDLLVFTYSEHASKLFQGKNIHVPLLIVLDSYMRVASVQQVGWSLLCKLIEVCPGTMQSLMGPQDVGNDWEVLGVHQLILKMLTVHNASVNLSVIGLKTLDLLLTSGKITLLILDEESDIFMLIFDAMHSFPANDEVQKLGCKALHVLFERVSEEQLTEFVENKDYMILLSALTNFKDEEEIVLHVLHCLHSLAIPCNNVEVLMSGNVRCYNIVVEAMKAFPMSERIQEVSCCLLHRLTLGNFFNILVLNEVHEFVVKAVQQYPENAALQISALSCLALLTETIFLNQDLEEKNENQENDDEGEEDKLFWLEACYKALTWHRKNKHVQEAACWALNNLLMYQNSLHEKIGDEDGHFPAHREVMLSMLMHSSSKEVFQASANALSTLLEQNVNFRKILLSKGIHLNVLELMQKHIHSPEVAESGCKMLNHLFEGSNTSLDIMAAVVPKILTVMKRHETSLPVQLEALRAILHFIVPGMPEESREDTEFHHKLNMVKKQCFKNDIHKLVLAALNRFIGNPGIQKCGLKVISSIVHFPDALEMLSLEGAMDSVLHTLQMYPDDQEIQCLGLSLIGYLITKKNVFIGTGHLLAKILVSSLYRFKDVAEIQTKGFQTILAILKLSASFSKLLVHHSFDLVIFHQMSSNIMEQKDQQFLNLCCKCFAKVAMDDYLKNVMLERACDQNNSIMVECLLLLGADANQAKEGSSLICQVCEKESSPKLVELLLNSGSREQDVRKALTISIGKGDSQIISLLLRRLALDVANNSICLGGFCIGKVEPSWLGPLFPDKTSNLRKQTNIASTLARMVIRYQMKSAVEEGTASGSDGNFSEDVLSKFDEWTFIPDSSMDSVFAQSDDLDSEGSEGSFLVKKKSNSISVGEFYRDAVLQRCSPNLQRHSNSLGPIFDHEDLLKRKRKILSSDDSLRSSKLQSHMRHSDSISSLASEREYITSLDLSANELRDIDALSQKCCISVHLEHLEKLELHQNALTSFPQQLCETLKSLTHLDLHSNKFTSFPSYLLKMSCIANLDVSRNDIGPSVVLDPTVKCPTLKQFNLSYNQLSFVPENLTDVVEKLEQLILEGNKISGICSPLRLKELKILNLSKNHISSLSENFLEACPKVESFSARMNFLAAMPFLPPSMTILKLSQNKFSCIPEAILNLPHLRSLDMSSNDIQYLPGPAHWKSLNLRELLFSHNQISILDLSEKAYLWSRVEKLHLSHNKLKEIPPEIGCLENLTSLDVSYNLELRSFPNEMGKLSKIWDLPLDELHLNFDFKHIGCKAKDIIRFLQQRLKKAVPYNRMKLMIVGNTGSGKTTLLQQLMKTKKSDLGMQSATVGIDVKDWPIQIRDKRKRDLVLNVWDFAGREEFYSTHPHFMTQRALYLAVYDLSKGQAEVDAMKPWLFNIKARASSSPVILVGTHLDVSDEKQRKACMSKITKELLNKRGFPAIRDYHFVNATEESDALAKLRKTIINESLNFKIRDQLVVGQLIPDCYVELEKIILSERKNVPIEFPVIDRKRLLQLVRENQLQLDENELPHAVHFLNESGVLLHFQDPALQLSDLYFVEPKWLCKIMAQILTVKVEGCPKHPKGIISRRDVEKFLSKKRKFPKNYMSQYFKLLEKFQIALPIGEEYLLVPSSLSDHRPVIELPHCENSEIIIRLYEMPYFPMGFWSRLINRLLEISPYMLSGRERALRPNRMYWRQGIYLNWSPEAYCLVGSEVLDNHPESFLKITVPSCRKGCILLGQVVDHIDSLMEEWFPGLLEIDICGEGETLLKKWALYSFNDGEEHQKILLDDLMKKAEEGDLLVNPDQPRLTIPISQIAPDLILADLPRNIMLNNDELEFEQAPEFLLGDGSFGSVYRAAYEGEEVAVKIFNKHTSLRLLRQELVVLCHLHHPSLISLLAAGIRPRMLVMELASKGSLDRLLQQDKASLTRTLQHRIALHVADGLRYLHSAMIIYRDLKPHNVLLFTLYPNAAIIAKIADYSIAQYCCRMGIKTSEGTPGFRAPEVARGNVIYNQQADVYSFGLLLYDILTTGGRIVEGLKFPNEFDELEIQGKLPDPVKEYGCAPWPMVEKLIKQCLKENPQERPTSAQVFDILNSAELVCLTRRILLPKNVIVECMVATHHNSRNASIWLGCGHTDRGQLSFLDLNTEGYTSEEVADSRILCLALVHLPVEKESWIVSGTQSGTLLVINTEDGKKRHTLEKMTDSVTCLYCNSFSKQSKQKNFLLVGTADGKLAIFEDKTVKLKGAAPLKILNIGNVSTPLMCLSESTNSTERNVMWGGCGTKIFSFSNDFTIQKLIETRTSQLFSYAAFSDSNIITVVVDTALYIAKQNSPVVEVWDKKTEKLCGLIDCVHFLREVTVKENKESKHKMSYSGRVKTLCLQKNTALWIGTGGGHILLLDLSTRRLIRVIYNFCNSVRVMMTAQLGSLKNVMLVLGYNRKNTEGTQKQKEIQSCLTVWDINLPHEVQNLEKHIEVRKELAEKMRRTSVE
Procedure: (FIGS. 2A-2C) LRRK2(G2019S) and its effector Rab29 were overexpressed together with GFP-fused Nbs (“Fluobody”) in HEK293T cells. A negative control, where no Nb is overexpressed (“No Nb”) is also included. […] In rows labeled “pLRRK2”, LRRK2 pS1292 levels are determined by Western Blot using a site-specific anti-pLRRK2(pS1292) antibody (Abcam, ab203181) (shown at different times of development). In the rows labeled “pRAB10”, endogenous pT72-Rab10 levels are determined by Western Blot using the MJFF/Abcam antibody MJF-R21 (Abcam, ab230261) (shown at different times of development). The three lower rows contain controls of LRRK2 (rat anti-LRRK2, 24D8), Fluobody (rat anti-GFP) and Rab10 (rabbit anti-Rab10) expression levels. (FIG. 2D) Based on the results of panels (FIGS. 2A-2C) the Nbs can be divided into 4 functional groups, with group 1: Nbs that inhibit both LRRK2 autophosphorylation and Rab10 phosphorylation in cells; group 2: Nbs that inhibit only Rab10 phosphorylation; group 3: Nbs that activate LRRK2 kinase activity; group 4: Nbs that have no consistent/clear effect on LRRK2 kinase activity.
To assess the influence of the Nbs on LRRK2 kinase activity we monitored two physiologically and disease relevant activities of LRRK2: phosphorylation of the endogenous substrate Rab10 at position T72 and LRRK2 autophosphorylation at position S1292 [25-30]. […] In our cellular assay we thus co-expressed LRRK2(G2019S), Rab29 and the different Nb-GFP fusions in HEK 293T cells (FIG. 2a-c).
HEK 293T cells were cultured in DMEM (supplemented with 10% Fetal Bovine Serum, […] L-Glutamine and 0.5% Pen/Strep). For the assay, the cells were seeded onto six-well plates and transfected at a confluency of 50-70% with the individual Nb-GFP expression constructs, SF-tagged LRRK2(G2019S) and FLAG-HA Rab29 using a self-made polyethylenimine (PEI)-based transfection reagent. After 48 hrs cells were lysed in lysis buffer [30 mM Tris-HCL (pH7.4), 150 mM NaCl, 0.5% Nonident-P40, complete protease inhibitor cocktail, phosphatase inhibitor cocktail II & III (all Sigma)]. Lysates were cleared by centrifugation at 10,000×g and adjusted to a protein concentration of 1 μg/μl in 1× Laemmli Buffer. Samples were subsequently subjected to SDS PAGE and Western Blot analysis to determine LRRK2 pS1292 and Rab10 T72 phosphorylation levels, as described below. Total LRRK2 and Rab10 levels were determined as a reference.
For western blot analysis, protein samples were separated by SDS-PAGE using NuPAGE 10% Bis-Tris gels (Invitrogen) and transferred onto PVDF membranes (Thermo Fisher). To allow simultaneous probing for LRRK2 on the one hand and Rab and the Nb-GFP fusions on the other hand, membranes were cut horizontally at the 140 kDa MW marker band. After blocking non-specific binding sites with 5% non-fat dry milk in TBST (1 h, RT) (25 mM Tris, pH 7.4, 150 mM NaCl, 0.1% Tween-20), membranes were incubated overnight at 4° C. with primary antibodies at dilutions specified below. Phospho-specific antibodies were diluted in TBST/5% BSA (Roth GmbH). Non-phospho-specific antibodies were diluted in TBST/5% non-fat dry milk powder (BioRad). Phospho-Rab10 levels were determined by the site-specific rabbit monoclonal antibody anti-pRAB10([…]) (Abcam, ab230261) and LRRK2 autophosphorylation was determined by the site-specific rabbit monoclonal antibody anti-pLRRK2(pS1292) (Abcam, ab203181), both at a dilution of 1:2,000. Total LRRK2 levels were determined by the in-house rat monoclonal antibody anti-pan-LRRK2 (clone 24D8; 1:10,000). Total Rab10 levels were determined by the rabbit monoclonal antibody anti-RAB10/ERP13424 (Abcam, ab181367) at a dilution of 1:5,000. Nb-GFP fusion proteins were detected using the rat monoclonal antibody anti-GFP (clone 3H9, ChromoTec) at a dilution of 1:2,000. For detection, goat anti-rat IgG or anti-rabbit IgG HRP-coupled secondary antibodies (Jackson ImmunoResearch) were used at a dilution of 1:15,000 in TBST/5% non-fat dry milk powder. […]

[2] = target: T2, LRRK2 COR-B construct (C-terminal part of the COR domain), His6-MBP tagged (human, UniProt Q5S007 1672-1840); assay: ELISA, antigen coated on the plate, purified Nb detected via its EPEA tag
T2 construct: also called (MBP-)COR-B; not shown: N-terminal His6-MBP-tag of pDEST-566
Description: (§1) We recombinantly expressed and purified the RocCOR, Roc, COR-B and kinase-WD40 (K-WD40) domain constructs of LRRK2 (FIG. 7). Subsequently, we performed an ELISA in which all these domain constructs were coated in parallel next to each other in the same ELISA plate, and where we subsequently detected binding of the 42 purified Nbs. […] To enrich in Nbs directed against the Roc domain we specifically included a selection step with either Roc-GTPγS or Roc-GDP.

[3] = target: T3, LRRK2 RocCOR domain construct (human, UniProt Q5S007 1334-1840); assay: as above
T3 construct: A second construct (residues 1293-1840, N-terminal His6-MBP) was used in certain screening experiments; not shown: N-terminal Twin-Strep-tag; C-terminal His10-tag
T3 sequence: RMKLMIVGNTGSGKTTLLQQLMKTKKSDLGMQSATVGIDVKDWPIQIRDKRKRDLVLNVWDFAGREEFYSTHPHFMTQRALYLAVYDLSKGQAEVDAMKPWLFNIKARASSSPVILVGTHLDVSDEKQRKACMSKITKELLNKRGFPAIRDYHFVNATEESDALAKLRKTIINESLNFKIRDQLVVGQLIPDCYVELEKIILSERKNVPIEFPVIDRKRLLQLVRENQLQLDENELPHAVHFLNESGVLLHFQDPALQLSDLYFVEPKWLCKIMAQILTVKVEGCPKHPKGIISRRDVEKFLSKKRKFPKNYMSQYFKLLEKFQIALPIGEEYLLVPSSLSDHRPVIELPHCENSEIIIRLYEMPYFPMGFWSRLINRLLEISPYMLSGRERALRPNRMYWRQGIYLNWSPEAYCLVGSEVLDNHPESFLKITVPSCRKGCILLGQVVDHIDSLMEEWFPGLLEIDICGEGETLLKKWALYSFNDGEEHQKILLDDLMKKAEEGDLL
Description: as §1

[4] = target: T4, LRRK2 Roc domain construct (human, UniProt Q5S007 1329-1520); assay: as above
T4 construct: not shown: N-terminal His6-tag of pET-28a
T4 sequence: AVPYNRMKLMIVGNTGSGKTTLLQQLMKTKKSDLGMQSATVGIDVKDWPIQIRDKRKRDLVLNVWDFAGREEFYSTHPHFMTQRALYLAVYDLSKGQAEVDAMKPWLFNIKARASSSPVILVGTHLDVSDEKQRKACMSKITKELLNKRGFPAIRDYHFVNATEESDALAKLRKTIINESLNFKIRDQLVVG
Description: as §1

B1: Nb13: LRRK2-specific Nanobody, SEQ ID NO: 16 (protein)
VHH: MAQVQLVESGGGLVQPGGSLRLSCAASGSGFSIYAMGWARQAPGRQRELVAAITSGGSTNYADSVKGRFTISRDNAKNTVYLQMNSLKPEDTAVYYCNADITVVAGSTYDYWGQGTQVTVSS
modifications: Nanobody CA13602
[1]
  influence on LRRK2 kinase activity compared to the controls: no influence on LRRK2 kinase activity

B2: Nb31: LRRK2-specific Nanobody, SEQ ID NO: 13 (protein)
VHH: MAQVQLVESGGGLVQAGGSLRLSCATSGLTFGTYAMAWFRQAAEKEREFVAFISGRGGYRDYADSVKGRLTIFRDNAKNNAKNTVYLQMNNLKPEDTAVYYCAARQGSPVRSKEEYNNWGQGTQVTVSS
modifications: Nanobody CA13620
[1]
  influence on LRRK2 kinase activity compared to the controls: no influence on LRRK2 kinase activity

B3: Nb37: LRRK2-specific Nanobody, SEQ ID NO: 14 (protein)
VHH: MAQVQLVESGGGLVQPGGSLRLSCAASGSVFSTNTMAWFRQAPGKQREWVGGITPGGFTNYINSVKGRFTISRDNANNTIYLQMSSLRPEDTAVYYCNTLSRMALWGQGTQVTVSS
modifications: Nanobody CA14131
[1]
  LRRK2 autophosphorylation at position S1292: somewhat stronger inhibitory effect towards LRRK2 autophosphorylation
  influence on LRRK2 kinase activity compared to the controls: no influence on LRRK2 kinase activity

B4: Nb9 (CA13598) (VHH)
VHH: QVQLVESGGGLVQPGGSLRLSCAASGSIFSINAMGWYRQAPGKQRELVAAITSGGRTNYADSVRGRFTISRDHAKNTVYLQMNSLKPEDTAVYYCNAGDWQTMYDYWGQGTQVTVSS
[2]
  binding result: no binding (tested: not given)
[3]
  binding result: no binding (tested: not given)
[4]
  binding result: no binding (tested: not given)

B5: Nb28: LRRK2-specific Nanobody, SEQ ID NO: 18 (protein)
VHH: MAQVQLVESGGGLVQAGGSLRLSCAASGIIFHWYDMDWYRQAPGKQRELVATITTGGRADYADFVKGRFSISRDNAKTTVYLQMNSLKPEDTAVYYCSFQDHVLRRWGQGTQVTVSS
modifications: Nanobody CA13617
[1]
  influence on LRRK2 kinase activity compared to the controls: significant increase of LRRK2 kinase activity

B6: Nb41: LRRK2-specific Nanobody, SEQ ID NO: 12 (protein)
VHH: MAQVQLVESGGGLVQAGGSLRLSCEASVRTFSFYSMGWFRQAPGKEREFVAAIRWTAGSTSYADIVKGRFTISRDNGKNTVVLQMNSLEPEDTGVYYCAAQRGYLVEAASREYDYWGQGTQVTVSS
modifications: Nanobody CA14136
[1]
  LRRK2 autophosphorylation at position S1292: inhibiting S1292 phosphorylation at a lesser extent
  influence on LRRK2 kinase activity compared to the controls: strongly decreased LRRK2 autophosphorylation and/or Rab10 phosphorylation
[1]; endogenous Rab10
  Rab10 phosphorylation at position T72: inhibit Rab10 phosphorylation

B7: Nb3: LRRK2-specific Nanobody, SEQ ID NO: 11 (protein)
VHH: MAQVQLVESGGGLVQPGGSLRLSCAASGSIFRRNAMGWYRQVTGKERELVAGITSGGYTNYRDFVKGRFTISRDNAKNTVYLQMNNLKPEDTAVYYCNLLSEMLQTVWGQGTQVTVSS
modifications: Nanobody CA12614
[1]
  LRRK2 autophosphorylation at position S1292: somewhat stronger inhibitory effect towards LRRK2 autophosphorylation
  influence on LRRK2 kinase activity compared to the controls: no influence on LRRK2 kinase activity

B8: Nb10: LRRK2-specific Nanobody, SEQ ID NO: 15 (protein)
VHH: MAQVQLVESGGGLVQPGGSLRLSCAASGSIFSIYAMGWYRQAPGKQRELVAAITSGGDTNYADSVKGRFTISRDNAKNTVYLQMNSLKPEDTAVYYCNADHTPAGTFQTFDYWGQGTQVTVSS
modifications: Nanobody CA13599
[1]
  influence on LRRK2 kinase activity compared to the controls: no influence on LRRK2 kinase activity

B9: Nb9: LRRK2-specific Nanobody, SEQ ID NO: 17 (protein)
VHH: MAQVQLVESGGGLVQPGGSLRLSCAASGSIFSINAMGWYRQAPGKQRELVAAITSGGRTNYADSVRGRFTISRDHAKNTVYLQMNSLKPEDTAVYYCNAGDWQTMYDYWGQGTQVTVSS
modifications: Nanobody CA13598
[1]
  influence on LRRK2 kinase activity compared to the controls: no influence on LRRK2 kinase activity
